The results in this text go back to patent publication US20050054023.

Series [1] relates to T1, EGF RECEPTOR (Thr669) peptide RRELVEPLTPSGEA
T1 sequence: RRELVEPLTPSGEA

Series [2] concerns T2, TH (rat) Ser40 peptide GRRQSLIEDAR
T2 sequence: GRRQSLIEDAR

Series [3] has as its system T3, TH (rat) Ser19 peptide RRAVSEQDAK
T3 sequence: RRAVSEQDAK

In series [4] the test system is T4, MBPtide (Thr97) APRTPGGRR
T4 sequence: APRTPGGR

For series [5], the system named is T5, rat TH-Ser31 peptide KQAEAVTSPR
T5 sequence: KQAEAVTSPR

The test system of series [6] is T6, TH (rat) Ser8 peptide PTPSAPSPQPK
T6 sequence: PTPSAPSPQPK

Series [7] deals with T7, type 1 human TH-Ser31 peptide QAEAIMSPRFGRR-NH2.
T7 sequence: QAEAIMSPRFGRR

Series [8] deals with T8, type 1 human TH-Ser31 peptide AIMSPRFIGRR
T8 sequence: AIMSPRFIGRR

Series [9] has as its system T9, rat TH-Ser31 peptide EAVTSPRFIGRR
T9 sequence: EAVTSPRFIGRR

Series [10] deals with T10, type 2 human TH-Ser31 peptide IMVRGQSPR
T10 sequence: IMVRGQSPR

For series [11], the system named is T11, peptide YQATGPLSPGPFRR-NH2.
T11 sequence: YQATGPLSPGPFRR

Series [12] deals with T12, type 1 human TH-Ser31 peptide EAIMSPRFK
T12 sequence: EAIMSPRFK

Series [13] concerns T13, peptide QATGPLSPGPFRR-NH2.
T13 sequence: QATGPLSPGPFRR

The next series relates to T14, peptide QATGPLSPGFRR-NH2.
T14 sequence: QATGPLSPGFRR

The subject of series [14] is T15, type 1 human TH-Ser31 peptide EAIMSPRFIGRR
T15 sequence: EAIMSPRFIGRR

Series [15] concerns T16, type 1 human TH-Ser31 peptide YQAEAIMSPRFIGRR-NH2.
T16 sequence: YQAEAIMSPRFIGRR

Series [16] has as its system T17, rat TH-Ser31 peptide AVTSPRFIGRR
T17 sequence: AVTSPRFIGRR

The subject of series [17] is T18, peptide YQATGPLSPGFRR-NH2.
T18 sequence: YQATGPLSPGFRR

Series [18] deals with T19, type 1 human TH-Ser31 peptide YQAEAIMSPRFIGRRQ
T19 sequence: YQAEAIMSPRFIGRRQ

The next series has as its system T20, ERKtide.
T20 sequence: ATGPLSPFGRR

The test system of series [19] is T21, type 2 human TH-Ser31 peptide EAIMVRGQSPRFK
T21 sequence: EAIMVRGQSPRFK

For series [20], the system named is T22, type 2 human TH-Ser31 peptide YIMVRGQSPR
T22 sequence: YIMVRGQSPR

Chain of extracellular signal-regulated protein kinase 2 (purified, recombinant, activated ERK2) (P28482 2-360): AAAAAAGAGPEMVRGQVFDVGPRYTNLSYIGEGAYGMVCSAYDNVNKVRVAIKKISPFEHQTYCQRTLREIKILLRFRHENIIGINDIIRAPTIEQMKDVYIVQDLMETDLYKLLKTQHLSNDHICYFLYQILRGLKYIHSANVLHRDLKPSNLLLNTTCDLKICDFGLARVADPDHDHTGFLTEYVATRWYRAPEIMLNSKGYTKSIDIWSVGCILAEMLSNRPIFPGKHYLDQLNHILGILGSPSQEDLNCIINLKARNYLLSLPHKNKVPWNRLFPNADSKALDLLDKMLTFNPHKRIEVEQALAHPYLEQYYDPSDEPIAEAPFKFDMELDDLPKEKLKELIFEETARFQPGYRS
Chain of extracellular signal-regulated protein kinase 1 (purified, activated ERK1) (P27361 2-379): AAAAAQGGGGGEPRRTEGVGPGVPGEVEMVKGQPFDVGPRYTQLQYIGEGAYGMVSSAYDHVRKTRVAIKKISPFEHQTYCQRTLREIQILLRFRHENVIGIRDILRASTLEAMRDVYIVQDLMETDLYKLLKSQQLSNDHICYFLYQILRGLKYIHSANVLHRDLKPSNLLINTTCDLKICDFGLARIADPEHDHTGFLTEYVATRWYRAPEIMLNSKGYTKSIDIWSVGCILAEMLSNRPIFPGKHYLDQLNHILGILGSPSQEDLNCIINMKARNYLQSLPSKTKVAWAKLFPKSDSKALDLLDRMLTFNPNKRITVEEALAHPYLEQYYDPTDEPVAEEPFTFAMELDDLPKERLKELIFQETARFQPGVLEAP

For “extracellular signal-regulated protein kinase 1 (purified, activated ERK1)”, the RELATIVE ^32P INCORPORATION (% OF MBP) is 100 % OF MBP in the series with myelin basic protein; 13 % OF MBP in series [1]; < 1 % OF MBP in [2]; < 1 % OF MBP in [3]; 28 % OF MBP in series [4]; 5 % OF MBP in series [5]. In addition, the RELATIVE ^32P INCORPORATION (% OF MBP) in series [6] was < 1 % OF MBP. Besides, the “^32P incorporation” value in series [4] was “^32P incorporation into MBPtide (SEQ ID NO: 2) was 330 nmol/min/mg”.

“extracellular signal-regulated protein kinase 2 (purified, recombinant, activated ERK2)”: the RELATIVE ^32P INCORPORATION (% 3.0 µmol/min/mg), Mean (% 3.0 µmol/min/mg) was 107 in series [7]; 164 in [11]; 143 in [13]; 182 in the series with peptide QATGPLSPGFRR-NH2; 117 in [15]; 215 in series [17]. Also, the RELATIVE ^32P INCORPORATION (% 3.0 µmol/min/mg), Mean (% 3.0 µmol/min/mg) in [18] turned out to be 100. The RELATIVE ^32P INCORPORATION (% 3.3 µmol/min/mg) (% 3.3 µmol/min/mg) in series [8] turned out to be 29; in series [9], 20; in series [10] it was 1; in [12], 21; in series [14] it was 41; in [15], 100. The RELATIVE ^32P INCORPORATION (% 3.3 µmol/min/mg) (% 3.3 µmol/min/mg) in [16] came to 9; in series [5] it was 7; in series [18] it was 80; in series [19] it was 2; in [20], 1. The Km(app) in series [12] is 1400 µM; in series [4], 2000 µM; in [5], 1800 µM; in [18], 1000 µM; with ERKtide it was 600 µM. Also, the Vmax(app) Relative in series [12] amounted to 42 Relative; in series [4], 46 Relative; in series [5] it was 9 Relative; in series [18], 80 Relative; with ERKtide it was 82 Relative. Moreover, the “^32P incorporation” value in series [15] is 100 percent 32p incorporation reflects 3.3 µmol/min/mg; in series [18] it was 100 percent ^32P incorporation reflects 3.0 µmol/min/mg. For the same substance, the “apparent Vmax” value with ERKtide was “The apparent Vmax of ERKtide (SEQ ID NO: 23) was 9.4 µmol/min/mg”.
